Biological target: full-length VipD (vacuolar protein sorting inhibitor protein D) (Legionella pneumophila, UniProt Q5ZRP9 1-621)
Assay: ITC; […]; 25°C; 20 mM Tris-HCl pH 7.5, 100 mM NaCl; iTC200
Conditions: both partners purified

Binder | Kd [nM]
Rab22a(1-175):GDP (domain or fragment, also called wild-type Rab22a(1-175)) MALRELKVCLLGDTGVGKSSIVWRFVEDSFDPNINPTIGASFMTKTVQYQNELHKFLIWDTAGQERFRALAPMYYRGSAAAIIVYDITKEETFSTLKNWVKELRQHGPPNIVVAIAGNKCDLIDVREVMERDAKDYADSIHAIFVETSAKNAININELFIEISRRIPSTDANLPS | 123
Rab5b(1-190):GDP (domain or fragment, also called wild-type Rab5b(1-190)) MTSRSTARPNGQPQASKICQFKLVLLGESAVGKSSLVLRFVKGQFHEYQESTIGAAFLTQSVCLDDTTVKFEIWDTAGQERYHSLAPMYYRGAQAAIVVYDITNQETFARAKTWVKELQRQASPSIVIALAGNKADLANKRMVEYEEAQAYADDNSLLFMETSAKTAMNVNDLFLAIAKKLPKSEPQNLG | 3150

— paper PMC3521694 (PLoS Pathogens, 2012)
